The record followed here is US10800847.

Test [1] deals with HLA-A*6801 (A68) single antigen on beads (human). Kind of test: Luminex iBeads (#6), IVIg 1:4.
Test [2] has as its target HLA-A*3402 (A34) single antigen on beads (human). Briefly: Luminex iBeads (#6), IVIg 1:4.
In test [3] the target is HLA-A*3001 (A30) single antigen on beads (human). Kind of test: Luminex iBeads (#6), IVIg 1:4.
For test [4], the target named is HLA-A*3002 (A30) single antigen on beads (human). Kind of test: Luminex iBeads (#6), IVIg 1:4.
The target of test [5] is HLA-A*3303 (A33) single antigen on beads (human). Kind of test: Luminex iBeads (#6), IVIg 1:4.
In test [6] the target is HLA-A*6602 (A66) single antigen on beads (human). Briefly: Luminex iBeads (#6), IVIg 1:4.
Test [7] deals with HLA-A*3101 (A31) single antigen on beads (human). Briefly: Luminex iBeads (#6), IVIg 1:4.
In test [8] the target is HLA-A*4301 (A43) single antigen on beads (human). Briefly: Luminex iBeads (#6), IVIg 1:4.
Test [9] deals with HLA-A*6601 (A66) single antigen on beads (human). Briefly: Luminex iBeads (#6), IVIg 1:4.
In test [10] the target is HLA-A*3301 (A33) single antigen on beads (human). Kind of test: Luminex iBeads (#6), IVIg 1:4.
Test [11] concerns the target HLA-A*3201 (A32) single antigen on beads (human). Kind of test: Luminex iBeads (#6), IVIg 1:4.
In test [12] the target is HLA-A*2902 (A29) single antigen on beads (human). Briefly: Luminex iBeads (#6), IVIg 1:4.
Test [13] concerns the target HLA-A*3601 (A36) single antigen on beads (human). Briefly: Luminex iBeads (#6), IVIg 1:4.
The target of test [14] is HLA-B*4006 (B61) single antigen on Luminex beads (human). Briefly: Luminex single antigen, iBead vs regular bead, IVIg 1:8.
The target in test [15] is HLA-B*4101 (B41) single antigen on Luminex beads (human). The test is described as above.
Test [16] addresses HLA-B*3501 (B35) single antigen on Luminex beads (human). Described as above.
Test [17] concerns the target HLA-B*4001 (B60) single antigen on Luminex beads (human). The test is described as above.
Test [18] has as its target HLA-B*2708 (B27) single antigen on Luminex beads (human). The test is described as above.
Test [19] addresses HLA-B*3901 (B39) single antigen on Luminex beads (human). The test is described as above.
Test [20] has as its target HLA-B*3701 (B37) single antigen on Luminex beads (human). Described as above.
For test [21], the target named is HLA-B*4701 (B47) single antigen on Luminex beads (human). The description is as above.
Test [22] addresses HLA-B*4002 (B61) single antigen on Luminex beads (human). Described as above.
For test [23], the target named is HLA-B*2705 (B27) single antigen on Luminex beads (human). The description is as above.
Test [24] deals with HLA-B*4501 (B45) single antigen on Luminex beads (human). The test is described as above.
Test [25] concerns the target HLA-B*4403 (B44) single antigen on Luminex beads (human). Described as above.
The target in test [26] is HLA-B*4402 (B44) single antigen on Luminex beads (human). The test is described as above.
Test [27] deals with HLA-B*4201 (B42) single antigen on Luminex beads (human). The description is as above.
Test [28] has as its target HLA-B*3801 (B38) single antigen on Luminex beads (human). The description is as above.
Test [29] addresses HLA-B*4006 (B61) single antigen on Luminex beads (human). Briefly: Luminex single antigen, regular beads (#7), IVIg 1:8.
Test [30] concerns the target HLA-B*4601 (B46) single antigen on Luminex beads (human). The description is as above.
In test [31] the target is HLA-B*3901 (B39) single antigen on Luminex beads (human). The description is as above.
Test [32] concerns the target HLA-B*3801 (B38) single antigen on Luminex beads (human). The test is described as above.
Test [33] deals with HLA-B*4006 (B61) single antigen on Luminex beads (human). Briefly: Luminex single antigen, iBeads (#6), IVIg 1:8.
Test [34] addresses HLA-B*4101 (B41) single antigen on Luminex beads (human). Kind of test: Luminex single antigen, iBeads (#6), IVIg 1:8.
Test [35] addresses HLA-B*3501 (B35) single antigen on Luminex beads (human). Kind of test: Luminex single antigen, iBeads (#6), IVIg 1:8.
Test [36] addresses HLA-B*2708 (B27) single antigen on Luminex beads (human). Briefly: Luminex single antigen, iBeads (#6), IVIg 1:8.
The target of test [37] is HLA-B*3901 (B39) single antigen on Luminex beads (human). Kind of test: Luminex single antigen, iBeads (#6), IVIg 1:8.
Test [38] concerns the target HLA-B*4002 (B61) single antigen on Luminex beads (human). Kind of test: Luminex single antigen, iBeads (#6), IVIg 1:8.
Test [39] deals with HLA-B*4402 (B44) single antigen on Luminex beads (human). Briefly: Luminex single antigen, iBeads (#6), IVIg 1:8.
In test [40] the target is HLA-B*4201 (B42) single antigen on Luminex beads (human). Kind of test: Luminex single antigen, iBeads (#6), IVIg 1:8.
Test [41] has as its target HLA-B*3801 (B38) single antigen on Luminex beads (human). Kind of test: Luminex single antigen, iBeads (#6), IVIg 1:8.

On to “IVIg Sandoglobulin (Novartis, Basel, Switzerland) (antibody)”, for which the MFI in test [1] came to 307 MFI; in [2] it was 177 MFI; in [3], 540 MFI; in [4], 526 MFI; in [5], 439 MFI; in test [6], 768 MFI. The MFI worked out at 295 MFI in [7]; 949 MFI in [8]; 783 MFI in [9]; 684 MFI in test [10]; 769 MFI in test [11]; 932 MFI in [12]. Besides, the MFI in [13] turned out to be 636 MFI.
For the substance “Octagam (IVIg, Octapharma, Lachen, Switzerland) (antibody)”, the Difference % (iBead against regular bead MFI) in test [14] was -97%; in test [15], -100%; in [16] it was -100%; in test [17], -100%; in [18] it was -100%; in [19], 0%. Besides, the Difference % (iBead against regular bead MFI) was -100% in test [20]; -57% in test [21]; -100% in test [22]; -100% in test [23]; -68% in [24]; -39% in test [25]. The Difference % (iBead against regular bead MFI) in [26] was -82%; in test [27], -100%; in [28], -100%. The MFI in test [29] stood at 4970 MFI; in test [30] it was 2440 MFI; in [31] it was 0 MFI; in test [32], 1000 MFI; in test [33], 167 MFI; in [34] it was 0 MFI. Further, the MFI in [35] was 0 MFI; in [36], 0 MFI; in test [37], 0 MFI; in test [38], 0 MFI; in test [39] it was 702 MFI; in [40], 0 MFI. This substance also returned an MFI in test [41] of 0 MFI.
